# Experimental data taken from PMC10470402.
# Biological target: S. pombe HT-Gemin2 (S. pombe) (UniProt P0CU08)
# Experiment: pull-down
# Chain of S. pombe HT-Gemin2 (S. pombe) (P0CU08 whole entry): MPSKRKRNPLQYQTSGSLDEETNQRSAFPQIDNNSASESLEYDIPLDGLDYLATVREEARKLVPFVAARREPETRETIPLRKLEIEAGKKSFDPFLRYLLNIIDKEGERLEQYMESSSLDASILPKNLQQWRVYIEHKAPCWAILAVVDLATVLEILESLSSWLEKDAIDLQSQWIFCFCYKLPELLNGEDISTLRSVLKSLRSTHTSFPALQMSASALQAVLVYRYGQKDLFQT
substance,measurement,value
"S. pombe SmD1/SmD2 subcomplex, HT-tag removed (from UniProt O42661 1-117; O14036 1-115)",percent bound,4.1%
same,percent bound (D1/D2 and F/E/G added together),15.1%
"S. pombe SmF/SmE/SmG subcomplex, HT-tag removed (from UniProt O59734 1-78; Q9USZ3 1-84; O74966 1-77)",percent bound,7.4%
same,percent bound (D1/D2 and F/E/G added together),9.2%
